From PMC3438747, “Role of Motif III in Catalysis by Acetyl-CoA Synthetase” (Archaea, 2012)
One block for each molecule: values may come before it.

Key:
[1] = target: T1, acetyl-CoA synthetase (Acs1Mt) (Methanothermobacter thermautotrophicus, UniProt O26319); assay: inhibition of purified enzyme, hydroxamate assay; type: biochemical
T1 construct: gene MTH_217
T1 sequence (O26319 1-558): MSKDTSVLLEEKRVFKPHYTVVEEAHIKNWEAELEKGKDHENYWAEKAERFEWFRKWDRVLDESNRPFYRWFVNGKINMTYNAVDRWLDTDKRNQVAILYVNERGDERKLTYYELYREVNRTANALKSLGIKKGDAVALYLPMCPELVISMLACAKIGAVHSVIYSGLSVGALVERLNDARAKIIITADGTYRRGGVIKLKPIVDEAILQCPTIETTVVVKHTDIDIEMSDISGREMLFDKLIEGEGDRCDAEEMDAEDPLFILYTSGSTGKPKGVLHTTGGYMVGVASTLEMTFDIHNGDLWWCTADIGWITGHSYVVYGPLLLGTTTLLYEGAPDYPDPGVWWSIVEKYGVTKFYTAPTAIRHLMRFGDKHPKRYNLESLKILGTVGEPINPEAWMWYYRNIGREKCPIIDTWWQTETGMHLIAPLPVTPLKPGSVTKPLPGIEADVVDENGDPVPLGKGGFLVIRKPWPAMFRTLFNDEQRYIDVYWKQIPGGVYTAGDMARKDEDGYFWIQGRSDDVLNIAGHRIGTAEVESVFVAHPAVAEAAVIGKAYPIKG

Acs1Mt = target: T2, Acs1Mt (Methanothermobacter thermautotrophicus, UniProt Q2XNL6); assay: hydroxamate assay, reciprocal plot of velocity vs inhibitor; type: biochemical; conditions: all three substrates (acetate, MgATP, CoA) saturating; pH 7.5; 65 °C
T2 construct: gene acs1; recombinant in E. coli Rosetta Blue (DE3); Q-sepharose and phenyl sepharose purification; dimer; motif III 498-YTAGD-502
T2 sequence (Q2XNL6 1-634): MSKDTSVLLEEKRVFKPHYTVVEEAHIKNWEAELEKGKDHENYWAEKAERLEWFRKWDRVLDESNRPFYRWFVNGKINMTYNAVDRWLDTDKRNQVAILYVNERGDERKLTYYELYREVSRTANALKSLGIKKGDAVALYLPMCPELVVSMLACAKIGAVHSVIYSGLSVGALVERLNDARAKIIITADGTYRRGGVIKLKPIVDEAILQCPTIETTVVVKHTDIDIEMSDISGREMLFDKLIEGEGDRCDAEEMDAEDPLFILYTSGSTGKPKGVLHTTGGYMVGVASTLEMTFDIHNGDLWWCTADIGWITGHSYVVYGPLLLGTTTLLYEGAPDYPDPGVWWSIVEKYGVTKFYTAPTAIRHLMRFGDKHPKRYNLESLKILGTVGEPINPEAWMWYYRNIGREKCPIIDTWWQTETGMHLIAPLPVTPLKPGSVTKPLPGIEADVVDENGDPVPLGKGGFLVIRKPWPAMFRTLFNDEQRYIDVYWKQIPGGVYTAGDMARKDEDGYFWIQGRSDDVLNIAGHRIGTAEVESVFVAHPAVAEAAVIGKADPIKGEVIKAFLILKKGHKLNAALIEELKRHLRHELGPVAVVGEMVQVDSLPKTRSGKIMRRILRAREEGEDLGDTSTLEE

[2] = target: Acs1Mt Ala500Thr variant (Methanothermobacter thermautotrophicus); assay: SEC; Superose 12 gel filtration column, 50 mM Tris pH 7.5 with 150 mM KCl, calibrated with mass standards; subunit composition (dimer)
[3] = target: Acs1Mt Asp502Ala variant (Methanothermobacter thermautotrophicus); assay: as above
[4] = target: Acs1Mt Asp502Asn variant (Methanothermobacter thermautotrophicus); assay: as above
[5] = target: Acs1Mt Asp502Glu variant (Methanothermobacter thermautotrophicus); assay: as above
[6] = target: Acs1Mt Gly501Ala variant (Methanothermobacter thermautotrophicus); assay: as above
[7] = target: Acs1Mt Thr499Ala variant (Methanothermobacter thermautotrophicus); assay: as above
[8] = target: Acs1Mt Tyr498Ala variant (Methanothermobacter thermautotrophicus); assay: as above
[9] = target: Acs1Mt Tyr498Phe variant (Methanothermobacter thermautotrophicus); assay: as above
[10] = target: Methanothermobacter thermautotrophicus Acs1 (AMP-forming acetyl-CoA synthetase), unaltered (Methanothermobacter thermautotrophicus); assay: as above
purified protein = substrate: CC(=O)O; assay: purified protein; conditions: Mg2+
[11] = substrate: CC(C)(COP(=O)(O)OP(=O)(O)OC[C@H]1O[C@@H](n2cnc3c(N)ncnc32)[C@H](O)[C@@H]1OP(=O)(O)O)[C@@H](O)C(=O)NCCC(=O)NCCS; assay: Michaelis-Menten kinetics of purified recombinant enzyme, hydroxamate assay (Km); type: biochemical, Methanothermobacter thermautotrophicus; conditions: Mg2+
[12] = substrate: Nc1ncnc2c1ncn2[C@@H]1O[C@H](COP(=O)(O)OP(=O)(O)OP(=O)(O)O)[C@@H](O)[C@H]1O; assay: as above; type: biochemical, Methanothermobacter thermautotrophicus; conditions: Mg2+ active site; Asp502 interacts with the OH groups of the ribose moiety (model)

Molecule: OC1OC[C@@H](O)[C@@H](O)[C@H]1O (some centres unmarked) [ribose]
Ki (Acs1Mt): 53 mM

Molecule: Acs1Mt Asp502Glu variant (enzyme)
stoichiometry N [5]: 2

Molecule: Acs1Mt Gly501Ala variant (enzyme)
stoichiometry N [6]: 2

Molecule: Acs1Mt Thr499Ala variant (enzyme)
stoichiometry N [7]: 2

Molecule: Acs1Mt Tyr498Ala variant (enzyme)
stoichiometry N [8]: 2

Molecule: Methanothermobacter thermautotrophicus Acs1 (AMP-forming acetyl-CoA synthetase), unaltered (enzyme)
stoichiometry N [10]: 2

B1: acetyl-CoA synthetase (Acs1Mt) (Methanothermobacter thermautotrophicus str. Delta H) (protein)
chain: MSKDTSVLLEEKRVFKPHYTVVEEAHIKNWEAELEKGKDHENYWAEKAERFEWFRKWDRVLDESNRPFYRWFVNGKINMTYNAVDRWLDTDKRNQVAILYVNERGDERKLTYYELYREVNRTANALKSLGIKKGDAVALYLPMCPELVISMLACAKIGAVHSVIYSGLSVGALVERLNDARAKIIITADGTYRRGGVIKLKPIVDEAILQCPTIETTVVVKHTDIDIEMSDISGREMLFDKLIEGEGDRCDAEEMDAEDPLFILYTSGSTGKPKGVLHTTGGYMVGVASTLEMTFDIHNGDLWWCTADIGWITGHSYVVYGPLLLGTTTLLYEGAPDYPDPGVWWSIVEKYGVTKFYTAPTAIRHLMRFGDKHPKRYNLESLKILGTVGEPINPEAWMWYYRNIGREKCPIIDTWWQTETGMHLIAPLPVTPLKPGSVTKPLPGIEADVVDENGDPVPLGKGGFLVIRKPWPAMFRTLFNDEQRYIDVYWKQIPGGVYTAGDMARKDEDGYFWIQGRSDDVLNIAGHRIGTAEVESVFVAHPAVAEAAVIGKAYPIKG
Km (purified protein): 3.5 ± 0.1 mM | Km [11]: 0.19 ± 0.003 mM | Km [12]: 3.3 ± 0.2 mM

Second part, the molecule after the results:

Ki [1]: 53 mM
Molecule: O=C[C@H](O)[C@H](O)[C@H](O)CO [ribose]

stoichiometry N [2]: 2
Molecule: Acs1Mt Ala500Thr variant (enzyme)

stoichiometry N [3]: 2
Molecule: Acs1Mt Asp502Ala variant (enzyme)

stoichiometry N [4]: 2
Molecule: Acs1Mt Asp502Asn variant (enzyme)

stoichiometry N [9]: 2
Molecule: Acs1Mt Tyr498Phe variant (enzyme)
